The test system of the series is Escherichia coli TOP10. Kind of series: shrunken log2 fold change of peptide-encoding DNA abundance (4.5 h post-induction vs induction); higher = less antimicrobial activity (less host growth inhibition). The conditions noted are these: time post-induction: 4.5 h; library: site-saturation at positions 5, 18, 19, 20.
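Also: peptides expressed intracellularly from a pBAD plasmid library in pooled LB shake-flask culture, induced with 0.3% L-arabinose, DNA abundance read by NGS, three biological replicates, DESeq2 with apeglm shrinkage.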

As to RRIRQRPPRLPRPRPRPFILPRP, the “shrunken log2 fold change” value was -0.635.
Consider RRIRMRPPRLPRPRPRPHELPRP, for which the “shrunken log2 fold change” value stood at 0.627.
The value for RRIRDRPPRLPRPRPRPRYEPRP was 0.223; that for RRIRPRPPRLPRPRPRPKLFPRP was 0.18.
As for RRIRIRPPRLPRPRPRPLCPPRP, the “shrunken log2 fold change” value was -0.502.
The value for RRIRPRPPRLPRPRPRPHPFPRP was -0.115; that for RRIRSRPPRLPRPRPRPILFPRP was -0.445; that for RRIRERPPRLPRPRPRPLRYPRP was -0.0652.
In the case of RRIRDRPPRLPRPRPRPNRCPRP, the “shrunken log2 fold change” value came out at 0.0339.
The value for RRIRWRPPRLPRPRPRPHVTPRP was -0.264; that for RRIRVRPPRLPRPRPRPYSMPRP was -0.692.
For RRIRQRPPRLPRPRPRPGIKPRP, the “shrunken log2 fold change” value was -1.89e-05.
As for RRIRRRPPRLPRPRPRPLWVPRP, the “shrunken log2 fold change” value came to 0.382.
The value for RRIRFRPPRLPRPRPRPQSEPRP was 0.00741; that for RRIRVRPPRLPRPRPRPMFKPRP was -0.24.
Next, RRIRYRPPRLPRPRPRPHCIPRP: -0.0129; RRIRQRPPRLPRPRPRPIPSPRP: -0.0138.
As for RRIRQRPPRLPRPRPRPHIYPRP, the “shrunken log2 fold change” value was -0.0139.
The value for RRIRIRPPRLPRPRPRPEGCPRP was -0.0356; that for RRIRMRPPRLPRPRPRPITAPRP was 0.244; that for RRIRKRPPRLPRPRPRPATFPRP was -0.0215.
Turning to RRIRVRPPRLPRPRPRPTWFPRP, the “shrunken log2 fold change” value stood at 0.177.
Next, RRIRERPPRLPRPRPRPVNMPRP: -0.139.
The value for RRIRRRPPRLPRPRPRPCFCPRP was 0.104; that for RRIRHRPPRLPRPRPRPMKRPRP was 0.0794; that for RRIRERPPRLPRPRPRPDPKPRP was 0.00358.
Next, RRIRGRPPRLPRPRPRPMWLPRP: 0.25.
Turning to RRIRGRPPRLPRPRPRPCQRPRP, the “shrunken log2 fold change” value stood at 0.014.
As for RRIRERPPRLPRPRPRPQWVPRP, the “shrunken log2 fold change” value was 0.0428.
For the sequence RRIRARPPRLPRPRPRPIWKPRP, the “shrunken log2 fold change” value is -0.0642.
For RRIRLRPPRLPRPRPRPCNGPRP, the “shrunken log2 fold change” value was -0.00674.
Next, RRIRIRPPRLPRPRPRPMRPPRP: 0.194.
The value for RRIRDRPPRLPRPRPRPWVVPRP was 0.0765; that for RRIRYRPPRLPRPRPRPIYSPRP was -0.143; that for RRIRDRPPRLPRPRPRPVPAPRP was 0.341.
With RRIRWRPPRLPRPRPRPTFVPRP, the “shrunken log2 fold change” value is -0.183.
With RRIRQRPPRLPRPRPRPTIKPRP, the “shrunken log2 fold change” value was -0.374.
As to RRIRTRPPRLPRPRPRPSDWPRP, the “shrunken log2 fold change” value is 0.0388.
With RRIRIRPPRLPRPRPRPPHWPRP, the “shrunken log2 fold change” value is 0.0943.
As to RRIRQRPPRLPRPRPRPTWFPRP, the “shrunken log2 fold change” value is 0.104.
Next, RRIRERPPRLPRPRPRPNYWPRP: -0.344; RRIRSRPPRLPRPRPRPFCHPRP: -0.162.
With RRIRWRPPRLPRPRPRPHHSPRP, the “shrunken log2 fold change” value was -0.667.
Next, RRIRYRPPRLPRPRPRPNYGPRP: -0.0594; RRIRDRPPRLPRPRPRPHMYPRP: -0.102; RRIRMRPPRLPRPRPRPHCPPRP: -0.506.
The value for RRIRHRPPRLPRPRPRPLDLPRP was 0.441.
Consider RRIRYRPPRLPRPRPRPTLKPRP, for which the “shrunken log2 fold change” value is -0.283.
Next, RRIRARPPRLPRPRPRPHQVPRP: -0.17; RRIRARPPRLPRPRPRPCTQPRP: 0.148; RRIRVRPPRLPRPRPRPETHPRP: -0.0797.
Take RRIRHRPPRLPRPRPRPWDGPRP: the “shrunken log2 fold change” value is -0.0969.
Next, RRIRFRPPRLPRPRPRPAVSPRP: -0.108.
RRIRCRPPRLPRPRPRPDDSPRP: the “shrunken log2 fold change” value was 0.14.
Regarding RRIRVRPPRLPRPRPRPWPDPRP, the “shrunken log2 fold change” value is 0.033.
The value for RRIRKRPPRLPRPRPRPPMCPRP was 0.389.
Regarding RRIRSRPPRLPRPRPRPKSGPRP, the “shrunken log2 fold change” value came out at 0.0485.
The value for RRIRDRPPRLPRPRPRPWQWPRP was -0.0124; that for RRIRDRPPRLPRPRPRPNNYPRP was -0.542.
The value for RRIRTRPPRLPRPRPRPAYAPRP was 0.0376; that for RRIRFRPPRLPRPRPRPGELPRP was 0.245; that for RRIRYRPPRLPRPRPRPFIFPRP was -1.01.
As to RRIRKRPPRLPRPRPRPECCPRP, the “shrunken log2 fold change” value stood at 0.327.
RRIRIRPPRLPRPRPRPPYAPRP: the “shrunken log2 fold change” value was -0.274.
As for RRIRPRPPRLPRPRPRPCCLPRP, the “shrunken log2 fold change” value was -0.439.
As for RRIRCRPPRLPRPRPRPSAYPRP, the “shrunken log2 fold change” value is -0.406.
The value for RRIRERPPRLPRPRPRPTFEPRP was 0.144.
For the sequence RRIRKRPPRLPRPRPRPAVSPRP, the “shrunken log2 fold change” value stood at 0.0687.
The value for RRIRFRPPRLPRPRPRPPEHPRP was 0.682; that for RRIRNRPPRLPRPRPRPCYMPRP was 0.0787; that for RRIRNRPPRLPRPRPRPHMGPRP was -0.133.
In the case of RRIRFRPPRLPRPRPRPEATPRP, the “shrunken log2 fold change” value is 0.565.
The value for RRIRCRPPRLPRPRPRPQSAPRP was -0.0724.
As to RRIRVRPPRLPRPRPRPNRMPRP, the “shrunken log2 fold change” value is -0.093.
Next, RRIRLRPPRLPRPRPRPWVKPRP: -0.0122; RRIRMRPPRLPRPRPRPRIFPRP: 0.011; RRIRKRPPRLPRPRPRPQIRPRP: -0.0406.
The value for RRIRRRPPRLPRPRPRPERTPRP was 0.232.
Next, RRIRFRPPRLPRPRPRPERVPRP: 0.094.
For the sequence RRIRHRPPRLPRPRPRPINQPRP, the “shrunken log2 fold change” value was -0.243.
Next, RRIRGRPPRLPRPRPRPVRLPRP: 0.525; RRIRRRPPRLPRPRPRPAFQPRP: 1.62; RRIRARPPRLPRPRPRPPHEPRP: 1.29.
Next, RRIRVRPPRLPRPRPRPVPWPRP: 0.0916; RRIRCRPPRLPRPRPRPVTNPRP: -0.0299.
Next, RRIRMRPPRLPRPRPRPGWQPRP: -0.032.
With RRIRVRPPRLPRPRPRPSQYPRP, the “shrunken log2 fold change” value was -0.389.
In the case of RRIRERPPRLPRPRPRPPETPRP, the “shrunken log2 fold change” value was -0.0785.
Take RRIRRRPPRLPRPRPRPYEWPRP: the “shrunken log2 fold change” value is 0.00618.
Next, RRIRIRPPRLPRPRPRPKTNPRP: -0.334; RRIRFRPPRLPRPRPRPDIPPRP: -0.634.
The value for RRIRRRPPRLPRPRPRPDALPRP was 0.23.
In the case of RRIRNRPPRLPRPRPRPMHCPRP, the “shrunken log2 fold change” value was -0.0148.
Next, RRIRLRPPRLPRPRPRPCAVPRP: -0.00495; RRIRCRPPRLPRPRPRPCAKPRP: -0.168; RRIRSRPPRLPRPRPRPRKCPRP: 0.149.
Next, RRIRHRPPRLPRPRPRPTACPRP: 0.074; RRIRSRPPRLPRPRPRPIHQPRP: -0.114.
Take RRIRIRPPRLPRPRPRPANCPRP: the “shrunken log2 fold change” value was -1.1.
The value for RRIRVRPPRLPRPRPRPRLHPRP was 0.0296; that for RRIRERPPRLPRPRPRPWIYPRP was 0.013; that for RRIRYRPPRLPRPRPRPMLAPRP was -0.269.
Next, RRIRQRPPRLPRPRPRPHIDPRP: -0.224; RRIRCRPPRLPRPRPRPRIKPRP: 0.0662; RRIRDRPPRLPRPRPRPRVCPRP: 0.372.
Next, RRIRRRPPRLPRPRPRPRHWPRP: 0.551; RRIRDRPPRLPRPRPRPWYLPRP: -0.11; RRIRYRPPRLPRPRPRPAVGPRP: 0.0398.
In the case of RRIRLRPPRLPRPRPRPAVIPRP, the “shrunken log2 fold change” value was -0.339.
The value for RRIRDRPPRLPRPRPRPQWNPRP was -0.37; that for RRIRRRPPRLPRPRPRPNNVPRP was -0.312.
Next, RRIRYRPPRLPRPRPRPRARPRP: 2.17; RRIRMRPPRLPRPRPRPPDFPRP: 0.549.
As for RRIRNRPPRLPRPRPRPYHNPRP, the “shrunken log2 fold change” value is -0.275.
As to RRIRARPPRLPRPRPRPMAKPRP, the “shrunken log2 fold change” value amounted to 0.216.
As for RRIRPRPPRLPRPRPRPNSMPRP, the “shrunken log2 fold change” value is -0.251.
The value for RRIRRRPPRLPRPRPRPPTLPRP was 0.739; that for RRIRVRPPRLPRPRPRPPSYPRP was 0.00807.
The value for RRIRGRPPRLPRPRPRPTYDPRP was 0.361; that for RRIRFRPPRLPRPRPRPENKPRP was -0.422.
Consider RRIRVRPPRLPRPRPRPGVYPRP, for which the “shrunken log2 fold change” value was -0.0713.
Turning to RRIRTRPPRLPRPRPRPYEMPRP, the “shrunken log2 fold change” value was -0.482.
As for RRIRLRPPRLPRPRPRPTDGPRP, the “shrunken log2 fold change” value was -0.0875.
RRIRNRPPRLPRPRPRPIGDPRP: the “shrunken log2 fold change” value was -0.0116.
The value for RRIRGRPPRLPRPRPRPWSRPRP was -0.188.
